From publication PMC5073374

Target: Link module from human TSG-6 (Link_TSG6) (human) (UniProt P98066)
Assay: AUC

## Link module from human TSG-6 (Link_TSG6) (from UniProt P98066 36-133) (domain or fragment)
  stoichiometry N: 2
